Experimental findings from patent US20260185070A1, “CRISPR-Cas Effector Polypeptides, Lipid Nanoparticles, and Methods of Use Thereof” (The Regents of the University of California, priority 2022, published 2026) are described below.

Data set [1] relates to EGFP transgene in a model HEK293T cell line. The data set can be described thus: EGFP-to-BFP HDR by LNP co-delivery of RNP and ssDNA template in HEK293T cells. It counts as cell-based, human. Particulars: additive in RNP LNPs; in words. From the text: It was investigated if the co-delivery of iGeoCas9 RNPs and ssDNA templates in LNPs could switch EGFP to the blue fluorescent protein (BFP) in a model HEK293T cell line (FIG. 43b). In this cell assay, editing of the chromophore Thr-Tyr-Gly in the EGFP transgene followed by HDR to install a Ser/Thr-His-Gly chromophore turns EGFP into BFP. Four sgRNAs, rEGFP-R1 to R4, were designed to target the coding and non-coding strands in the chromophore region for editing. To avoid possible recutting events after the incorporation of the desired edits, four ssDNA HDR templates were designed to introduce GFP-to-BFP edits together with additional silent mutations in the DNA sequence. […] The HDR level was quantified to be between 20-40% by flow cytometry with 50-75% of non-homologous end-joining (NHEJ) indicated as EGFP knockdown (FIGS. 4b and 51).
LNP delivery: 4-6.5k cells/well were seeded in 96-well plates 48 hours prior to LNP treatment (HEK293 cells: 4-5k. NPCs: 5-6k, and 16HBEge cells: 6-6.5k). The culture media was refreshed 24 hours after LNP treatment. HEK293T cells were split after 2 additional days with a ratio of […] based on cell confluency. […]
Cell fluorescence was assayed on an Attune NxT acoustic focusing cytometer (Thermo Fisher Scientific) equipped with 554 nm excitation laser and 585/16 emission filter (tdTomato). […] Data were analyzed using Attune Cytometric Software v5.1.1.

For data set [2], the system named is NPCs. The data set can be described thus: NPC viability with LNPs containing different pegylated lipids. It counts as cell-based, mouse. An excerpt: Several pegylated lipids, commercial and synthetic, were examiner for their ability to encapsulate and deliver iGeoCas9 RNPs in LNPs (FIG. 48c). […] The reduced toxicity and enhanced delivery efficiency of these 3 PEGylated lipids stems from the pH-sensitive, acid-degradable acetal linker used in their synthesis (FIG. 49): the labile acetal linker could be cleaved in the late endosome stage of LNP delivery with a pH of 5-6, which frees the PEG moiety from the lipid molecules to reduce cytotoxicity and meanwhile destabilizes the endosome to promote the release of RNP into the cytosol. Further optimization of other parameters (e.g., mole and volume ratios of lipids to RNP, and salt concentration in the buffer, FIG. 50b) in LNP assembly established two sets of lipid formulations, i.e., standard formula (with DOTAP as the cationic lipid) and cationic formula (with ADC as the cationic lipid), which encapsulate GeoCas9 RNPs with good particle uniformity (diameter: 170-180 nm, PDI: 0.13-0.17) (FIG. 41b).

Data set [3] can be described thus: protein melting temperature, thermal shift assay. Format: physicochemical. The procedure: Protein melting temperatures were measured using the thermal shift assay (GloMelt™, CAT #33021). The assay was performed on a quantitative PCR system with a temperature increase rate of 2° C./min. The protein melting temperatures were determined as the peak values in the derivative curves of the melting curves.

Data set [4] relates to ccdB toxin gene. The data set can be described thus: bacterial dual-plasmid selection assay (Cas9 cleavage of ccdB plasmid, survival rate). Format: cell-based, E. coli. Particulars: for survival rate: sgRNA target sequence #6, PAM ggatGAAA.
Description: A bacterial dual-plasmid selection system was employed for the directed evolution of GeoCas9, which has been successfully employed for engineering other CRISPR Cas effectors. […] To search for a reliable evolution starting point with minimal activity in the E. coli assay, 20 different sgRNAs that target the ccdB gene at the protospacers associated with different PAM sequences were screened (FIG. 46d) and selection under two sets of conditions was performed (37 C or 30 C for 1.5 hours). […] Libraries of GeoCas9 mutants were generated by targeting different domains of the protein for random mutagenesis (FIG. 46a) and then subjected to the selection system under the conditions at 30° C.
A chloramphenicol-resistant (CAM+) bacterial expression plasmid was built to have the insert gene of GeoCas9 together with its corresponding sgRNA that targets the ccdB gene in the selection plasmid with a PAM of GAAA (g6). Libraries of GeoCas9 mutants were generated by error-prone PCR to introduce random mutagenesis in three different regions (BH-Rec, RuvC-HNH-WED, and WED-PI). The error-prone PCR (with an error rate of 3- to 5-nucleotide mutations per kilobase) was carried out with the Taq DNA polymerase (New England BioLabs) in a reaction containing 2 μl of 10 mM primers, 1.5 μl of 10 mM MnCl2, 2 ng of template plasmid. The plasmid libraries were generated by ligating the mutated fragments with the remaining part of the plasmid through Gibson assembly. The plasmid libraries (-100 ng DNA after clean-up) were electroporated into 50 μl of electronically competent cells made from E. coli strain BW25141(DE3) that contains the selection plasmid encoding the arabinose-inducible ccdB toxin gene. After recovery of the electroporated bacteria in 750 μl of SOB for 1.5 hours at 30° C., the bacteria culture was concentrated; 1% of the total culture was plated onto a Petri agar dish containing only CAM (as control), and the remainder culture was plated on another Petri agar-dish containing both arabinose and CAM. […]

For heparin, the “effect of anionic polymer additive on editing levels” value in data set [1] is on record as “reduced editing”.
On to DMG-PEG, for which the “toxicity / biocompatibility with NPCs” value in data set [2] is reported as “detrimental to NPC viability”.

B1: GeoCas9: Geobacillus stearothermophilus CRISPR-Cas effector polypeptide, SEQ ID NO: 1; thermostable type II-C Cas9 (protein, listed as Geobacillus stearothermophilus)
chain: MRYKIGLDIGITSVGWAVMNLDIPRIEDLGVRIFDRAENPQTGESLALPRRLARSARRRLRRRKHRLERIRRLVIREGILTKEELDKLFEEKHEIDVWQLRVEALDRKLNNDELARVLLHLAKRRGFKSNRKSERSNKENSTMLKHIEENRAILSSYRTVGEMIVKDPKFALHKRNKGENYTNTIARDDLEREIRLIFSKQREFGNMSCTEEFENEYITIWASQRPVASKDDIEKKVGFCTFEPKEKRAPKATYTFQSFIAWEHINKLRLISPSGARGLTDEERRLLYEQAFQKNKITYHDIRTLLHLPDDTYFKGIVYDRGESRKQNENIRFLELDAYHQIRKAVDKVYGKGKSSSFLPIDFDTFGYALTLFKDDADIHSYLRNEYEQNGKRMPNLANKVYDNELIEELLNLSFTKFGHLSLKALRSILPYMEQGEVYSSACERAGYTFTGPKKKQKTMLLPNIPPIANPVVMRALTQARKVVNAIIKKYGSPVSIHIELARDLSQTFDERRKTKKEQDENRKKNETAIRQLMEYGLTLNPTGHDIVKFKLWSEQNGRCAYSLQPIEIERLLEPGYVEVDHVIPYSRSLDDSYTNKVLVLTRENREKGNRIPAEYLGVGTERWQQFETFVLTNKQFSKKKRDRLLRLHYDENEETEFKNRNLNDTRYISRFFANFIREHLKFAESDDKQKVYTVNGRVTAHLRSRWEFNKNREESDLHHAVDAVIVACTTPSDIAKVTAFYQRREQNKELAKKTEPHFPQPWPHFADELRARLSKHPKESIKALNLGNYDDQKLESLQPVFVSRMPKRSVTGAAHQETLRRYVGIDERSGKIQTVVKTKLSEIKLDASGHFPMYGKESDPRTYEAIRQRLLEHNNDPKKAFQEPLYKPKKNGEPGPVIRTVKIIDTKNQVIPLNDGKTVAYNSNIVRVDVFEKDGKYYCVPVYTMDIMKGILPNKAIEPNKPYSEWKEMTEDYTFRFSLYPNDLIRIELPREKTVKTAAGEEINVKDVFVYYKTIDSANGGLELISHDHRFSLRGVGSRTLKRFEKYQVDVLGNIYKVRGEKRVGLASSAHSKPGKTIRPLQSTRD
Take B1: in data set [3], the “Tm (thermostability)” value was 60 °C. Also, the survival rate in data set [4] (selection 30° C. for 1.5 hours) was below 0.1%; in data set [4] (selection 37 C for 1.5 hours), 2-5%. The “survival in the bacterial assay” value in data set [4] (validation of selected mutant vs wild-type, temperature not stated) was below 5%.
